Measured values published in the supplement of paper PMC12783771.
± gives the standard deviation of the averaged measurements.

B1: library; a variant is named by its letters at X, in order (parent)
chain: MNIQIGELAKRTACPVVTIRFYEQEGLLPPPGRSRGNFRLYGEEHVERLQFIRHCRSLDMPLSDVRTLLSYRKRPDQDCGEVXMLLDEHIRQVESRIGALLELKHHLVELREACSGARPAQSCGILQXLSXCVCXTRGTTAHXSD

What was measured:
[1] = variants of: B1; assay: sfGFP reporter fluorescence (15 h) (µM FITC); higher = higher leak; conditions: library round: Round 2; ligand: none
Protocol: (§1)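 Cell-free biosensing: 1 µL Echo-assembled CFE reactions with linear PbrR variant templates (5 nM) and pPbrR-sfGFP reporter, with 1 µM Pb, 30 µM Zn or no ligand; endpoint sfGFP fluorescence after 15 h at 30 °C calibrated as µM FITC. Round 2 ML-predicted PbrR mutants; up to 3 biological replicates.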

[2] = variants of: B1; assay: sfGFP reporter fluorescence (15 h) (µM FITC); higher = stronger transcriptional activation; conditions: library round: Round 2
Protocol: as §1

| Variant | sfGFP reporter fluorescence [1] | sfGFP reporter fluorescence ([2]; ligand: 1 µM Pb) | sfGFP reporter fluorescence ([2]; ligand: 30 µM Zn) |
| --- | --- | --- | --- |
| NGDAP D64T Q127G | 0.0728 ± 0.0058 | 0.121 ± 0.013 | 1.87 ± 0.15 |
| NGLAP P61T | 0.217 ± 0.015 | 0.402 ± 0.021 | 1.9 ± 0.27 |
| TGDDP V108L E112F | 0.0469 ± 0.0011 | 0.0496 ± 0.0032 | 0.0846 ± 0.0051 |
| TGDDP R96A K104V L107I | 0.0526 ± 0.0017 | 0.0483 ± 0.0032 | 0.0559 ± 0.002 |
| NGCDP V108I S115G | 0.0507 ± 0.0021 | 0.0573 ± 0.0016 | 0.115 ± 0.0092 |
| TGDAP E109L | 0.043 ± 0.0023 | 0.0797 ± 0.0069 | 0.366 ± 0.035 |
| NICDP M60L D64K | 2.32 ± 0.17 | 3.17 ± 0.17 | 3.67 ± 0.38 |
| NIDDP P61N C134E | 0.308 ± 0.021 | 0.544 ± 0.11 | 3.19 ± 0.055 |
| NGDAY L110V | 0.0649 ± 0.005 | 0.0584 ± 0.0031 | 0.445 ± 0.032 |
| SGDAA | 0.0628 ± 0.0043 | 0.0745 ± 0.0027 | 0.449 ± 0.062 |
| SGDAY | 0.0491 ± 0.0015 | 0.0749 ± 0.0032 | 0.399 ± 0.039 |
| NGAAS | 0.0633 ± 0.001 | 0.107 ± 0.011 | 1.08 ± 0.1 |
| NIDDP M60L P61N K104V L107C | 0.315 ± 0.042 | 1.19 ± 0.096 | 2.16 ± 0.42 |
| NGCDA L107C | 0.757 ± 0.089 | 1.68 ± 0.17 | 3.37 ± 0.31 |
| NGDAL P61N | 0.0792 ± 0.0022 | 0.235 ± 0.018 | 1.57 ± 0.074 |
| TGAYC | 0.05432 ± 0.00051 | 0.085 ± 0.0051 | 0.699 ± 0.064 |
| NGSAY L107V | 0.12 ± 0.017 | 0.238 ± 0.042 | 1.97 ± 0.17 |
| NGADP V133P C134V | 0.0817 ± 0.0086 | 0.0967 ± 0.019 | 2.1 ± 0.36 |
| TIDDP P61N D64K | 0.106 ± 0.013 | 0.617 ± 0.019 | 1.75 ± 0.14 |
| NIDAK M84A L107C | 1.54 ± 0.14 | 2.6 ± 0.14 | 4.03 ± 0.52 |
| NIEDP L107C | 1.74 ± 0.23 | 2.69 ± 0.47 | 3.33 ± 0.68 |
| TGDDP R96A E109A | 0.0459 ± 0.0014 | 0.0588 ± 0.00089 | 0.144 ± 0.02 |

| Variant | sfGFP reporter fluorescence [1] | sfGFP reporter fluorescence ([2]; ligand: 1 µM Pb) | sfGFP reporter fluorescence ([2]; ligand: 30 µM Zn) |
| --- | --- | --- | --- |
| TGDRP V108L | 0.0448 ± 0.0017 | 0.0788 ± 0.0022 | 0.327 ± 0.012 |
| NGSPL | 0.077 ± 0.0065 | 0.141 ± 0.014 | 1.2 ± 0.12 |
| NGSPA | 0.0677 ± 0.013 | 0.114 ± 0.019 | 0.999 ± 0.13 |
| TGCAT | 0.0488 ± 0.002 | 0.0664 ± 0.0029 | 0.09 ± 0.0056 |
| TGCAP | 0.0461 ± 0.0022 | 0.0657 ± 0.0026 | 0.0869 ± 0.005 |
| NGDDM I90L I125L | 0.0615 ± 0.0043 | 0.0526 ± 0.0027 | 0.0576 ± 0.0035 |
| NGADY L107C | 1.36 ± 0.23 | 2.4 ± 0.18 | 3.25 ± 0.18 |
| TGAPL | 0.0604 ± 0.0053 | 0.109 ± 0.013 | 0.301 ± 0.034 |
| TGAPW | 0.0521 ± 0.00089 | 0.146 ± 0.014 | 0.264 ± 0.014 |
| NGDRP P61N D64A | 0.111 ± 0.007 | 0.221 ± 0.0096 | 1.54 ± 0.25 |
| NGDDP P61E L62I D64K | 0.125 ± 0.015 | 0.249 ± 0.094 | 1.34 ± 0.17 |
| TGCDL | 0.045 ± 0.00089 | 0.0743 ± 0.011 | 0.0958 ± 0.0017 |
| TGCDT | 0.0478 ± 0.0007 | 0.0731 ± 0.0033 | 0.0847 ± 0.0041 |
| TGCDI | 0.0463 ± 0.0019 | 0.0711 ± 0.0029 | 0.0916 ± 0.0046 |
| TGCDA | 0.0468 ± 0.0016 | 0.0758 ± 0.0041 | 0.0857 ± 0.0083 |
| NGDAP P61D D64K L107C | 2.53 ± 0.22 | 1.89 ± 0.26 | 2.38 ± 0.23 |
| NGDDR T136A T140A | 0.0505 ± 0.0017 | 0.0665 ± 0.0039 | 0.801 ± 0.079 |
| NGDDP P61N D64K K104M L107C | 0.791 ± 0.061 | 1.74 ± 0.2 | 2.52 ± 0.35 |
| TGDDP R111D E112H | 0.0469 ± 0.002 | 0.0446 ± 0.0019 | 0.0529 ± 0.003 |
| TIDSP L107C | 0.384 ± 0.026 | 1.42 ± 0.32 | 3.28 ± 0.26 |
| TGDDP K104R E112F | 0.0494 ± 0.00089 | 0.0553 ± 0.0034 | 0.111 ± 0.0062 |
| NGDDR V108L T139A | 0.0498 ± 0.0012 | 0.068 ± 0.0054 | 0.809 ± 0.081 |

| Variant | sfGFP reporter fluorescence [1] | sfGFP reporter fluorescence ([2]; ligand: 1 µM Pb) | sfGFP reporter fluorescence ([2]; ligand: 30 µM Zn) |
| --- | --- | --- | --- |
| NHCDP I125V | 0.0459 ± 0.0044 | 0.0526 ± 0.0016 | 0.0631 ± 0.0035 |
| NLDDP G124A L129A | 0.0419 ± 0.0017 | 0.0398 ± 0.0017 | 0.0426 ± 0.0023 |
| NGYAP K104R | 0.0664 ± 0.0054 | 0.0679 ± 0.0057 | 0.698 ± 0.11 |
| TGDAA E112I | 0.04637 ± 0.00034 | 0.0525 ± 0.0024 | 0.108 ± 0.0066 |
| NGTYP V133P | 0.0724 ± 0.0067 | 0.148 ± 0.0095 | 0.951 ± 0.42 |
| NGADW L126I | 0.0633 ± 0.0051 | 0.0592 ± 0.0043 | 0.317 ± 0.024 |
| NGDPP G124S I125L | 0.0484 ± 0.0015 | 0.0455 ± 0.0014 | 0.0506 ± 0.001 |
| NIDDP D64K V108E | 0.181 ± 0.026 | 0.581 ± 0.051 | 3.32 ± 0.42 |
| NGSRP L126I | 0.0416 ± 0.0022 | 0.0457 ± 0.0021 | 0.333 ± 0.0046 |
| NGDDP P61N D64T E112V | 0.117 ± 0.013 | 0.294 ± 0.026 | 2.13 ± 0.17 |
| TGDDP E109D E112K | 0.0468 ± 0.0013 | 0.0781 ± 0.0022 | 0.418 ± 0.034 |
| NGYAP S95G | 0.0664 ± 0.003 | 0.0795 ± 0.0044 | 1.03 ± 0.072 |
| NGTDP S115G V133P | 0.0474 ± 0.0012 | 0.0633 ± 0.00085 | 0.461 ± 0.052 |
| NGCAP S130A | 0.0466 ± 0.011 | 0.0819 ± 0.0045 | 0.429 ± 0.066 |
| NIDDP L107C G124A | 0.942 ± 0.1 | 2.53 ± 0.21 | 3.41 ± 0.84 |
| IGDDR K104V H106A | 0.0522 ± 0.00085 | 0.136 ± 0.0052 | 0.0496 ± 0.0028 |
| NIDAK L107C G124A | 0.814 ± 0.086 | 2.25 ± 0.053 | 3.09 ± 0.3 |
| NIDDP H105E L107C C134E | 2.32 ± 0.044 | 2.05 ± 0.18 | 2.82 ± 0.14 |
| NIDSP M60L | 0.251 ± 0.048 | 0.739 ± 0.14 | 2.25 ± 0.49 |
| NGAPY | 0.0801 ± 0.0048 | 0.159 ± 0.0087 | 1.13 ± 0.12 |
| NGAPL | 0.0797 ± 0.0073 | 0.16 ± 0.0081 | 1.22 ± 0.26 |
| NGCDP P61N H106A | 0.0622 ± 0.0038 | 0.166 ± 0.0088 | 0.457 ± 0.079 |

| Variant | sfGFP reporter fluorescence [1] | sfGFP reporter fluorescence ([2]; ligand: 1 µM Pb) | sfGFP reporter fluorescence ([2]; ligand: 30 µM Zn) |
| --- | --- | --- | --- |
| NGDDP M60L D64S L107C | 3.21 ± 0.37 | 2.96 ± 0.13 | 3.58 ± 0.77 |
| NGSAA K104R | 0.0641 ± 0.0074 | 0.097 ± 0.0024 | 1.05 ± 0.14 |
| TGSDP H142A | 0.0642 ± 0.0043 | 0.081 ± 0.0053 | 0.451 ± 0.086 |
| NGCAL | 0.0515 ± 0.0016 | 0.0668 ± 0.0024 | 0.255 ± 0.022 |
| NGCAY | 0.0505 ± 0.0017 | 0.0635 ± 0.0058 | 0.277 ± 0.0034 |
| TGNDP I90L | 0.0469 ± 0.0017 | 0.0573 ± 0.0011 | 0.192 ± 0.014 |
| SGSPP | 0.0484 ± 0.0013 | 0.123 ± 0.0072 | 0.394 ± 0.023 |
| NGDAP L129I H142A | 0.0458 ± 0.0024 | 0.0491 ± 0.0012 | 0.302 ± 0.012 |
| NGDAP P61N D64T E112I | 0.11 ± 0.014 | 0.308 ± 0.03 | 1.7 ± 0.2 |
| NIEDP C134E | 0.194 ± 0.028 | 0.316 ± 0.0082 | 4.73 ± 3.2 |
| NGAAP L107C | 1.86 ± 0.29 | 2.29 ± 0.21 | 3.05 ± 0.55 |
| NGDDP M60F P61N D64K K104V | 0.395 ± 0.16 | 0.744 ± 0.16 | 2.04 ± 0.33 |
| TGDDL T139A | 0.0436 ± 0.001 | 0.0619 ± 0.0082 | 0.241 ± 0.015 |
| NICDP K104R | 0.0714 ± 0.0069 | 0.134 ± 0.0046 | 0.244 ± 0.034 |
| NHDDA V108L | 0.0477 ± 0.0017 | 0.0671 ± 0.0043 | 0.271 ± 0.03 |
| TGSAP V108L | 0.0457 ± 0.0012 | 0.102 ± 0.0018 | 0.475 ± 0.012 |
| NISDP L107C | 2.65 ± 0.43 | 3.61 ± 0.5 | 3.33 ± 0.18 |
| SGDDP L85Y K104V | 0.0628 ± 0.0056 | 0.0671 ± 0.0055 | 0.248 ± 0.027 |
| NGDRP D64T E88A | 0.369 ± 0.048 | 0.499 ± 0.14 | 3.13 ± 0.29 |
| NGDDW R74Q G138A | 0.0503 ± 0.0034 | 0.05902 ± 0.00051 | 0.58 ± 0.017 |
| TGCAP Q121A | 0.0482 ± 0.0011 | 0.0978 ± 0.0067 | 0.156 ± 0.0046 |
| SGMAP | 0.0668 ± 0.0035 | 0.0819 ± 0.0034 | 0.586 ± 0.076 |
